These results are taken from US20060287501A1 (Pieris, published 2006).

In assay [1] the target is T1, recombinant Nogo-A fragment NI-Fr2 (rat, UniProt Q9JK11 233-941, labelled with digoxigenin (molar ratio 5:1) in the colony screening assay).
T1 construct: Truncated rat Nogo-A with C-terminal Strep-tag, made in the E. coli periplasm; also called MI-Fr2; wild-type NI-Fr2
T1 sequence: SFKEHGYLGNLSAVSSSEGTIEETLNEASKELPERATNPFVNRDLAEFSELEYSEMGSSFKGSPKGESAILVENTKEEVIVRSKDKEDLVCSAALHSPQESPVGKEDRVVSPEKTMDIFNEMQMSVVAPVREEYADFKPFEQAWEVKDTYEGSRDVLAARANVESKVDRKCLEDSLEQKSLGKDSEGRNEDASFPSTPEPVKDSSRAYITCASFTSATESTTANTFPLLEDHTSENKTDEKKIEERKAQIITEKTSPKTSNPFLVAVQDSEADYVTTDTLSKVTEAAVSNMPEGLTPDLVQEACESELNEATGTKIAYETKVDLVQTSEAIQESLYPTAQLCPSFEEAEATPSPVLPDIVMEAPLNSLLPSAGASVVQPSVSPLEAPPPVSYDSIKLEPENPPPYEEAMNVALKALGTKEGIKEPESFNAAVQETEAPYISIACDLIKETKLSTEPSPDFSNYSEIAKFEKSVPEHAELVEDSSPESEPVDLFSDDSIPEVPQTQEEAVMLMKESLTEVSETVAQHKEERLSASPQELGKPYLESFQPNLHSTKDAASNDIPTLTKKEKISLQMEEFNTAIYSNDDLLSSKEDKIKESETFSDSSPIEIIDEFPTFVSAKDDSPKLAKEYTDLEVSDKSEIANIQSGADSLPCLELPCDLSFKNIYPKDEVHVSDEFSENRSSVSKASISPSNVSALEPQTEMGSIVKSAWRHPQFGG
Description: filter-sandwich colony screening assay; Fab-ABD (pASK106) captured on HSA membrane, digoxigenin-labelled NI-Fr2. Here is the method: The mutagenized gene fragment was recloned on the expression vector pASK106-IN1 (encoding a Fab fragment fused with an albumin-binding domain to the C-terminus of its light chain; König and Skerra, supra). E. coli JM83 was transformed with the ligation mixture and transformed cells harboring the pASK106 vector were plated on a hydrophilic membrane (GVWP, 0.22 μm; Millipore, Bedford, Mass.), placed on a petri dish with LB/Amp agar, such that approximately 500 colonies were obtained, and incubated at 37° C. for 8 to 9 h. In the meantime a hydrophobic membrane (Immobilon-P, 0.45 μm; Millipore) was coated with 10 mg/ml human serum albumin (HSA; Sigma, Deisenhofen, Germany) in PBS for four hours and blocked with 3% (w/v) BSA (Roth, Karlsruhe, Germany), 0.5% (v/v) Tween 20 in PBS. The membrane was washed twice with PBS, soaked in LB/Amp containing […], and placed on an LB/Amp agar plate supplemented with […]. The first membrane, carrying tiny colonies of the transformed cells, was then placed onto the second (hydrophobic) membrane. The filter sandwich was incubated for 16 h at 22° C. During this period the mutated IN-1 Fab fragments became secreted—and partially released from the colonies by leakage from the bacterial periplasm—and finally immobilized on the lower membrane via complex formation between HSA and ABD.
The first membrane with the still viable colonies was transferred to a fresh LB/Amp agar plate and stored at 4° C. The second membrane was washed three times in PBS containing 0.1% (v/v) Tween 20 (PBS/T) and the immobilized Fab fragments, each in a spot 30 corresponding to the position of the original colony, were probed for antigen binding. To this end recombinant Nogo-A fragment NI-FR2 was labeled at a molar ratio of 5:1 with digoxigenin-3-O-methylcarbonyl-e-aminocaproic acid N-hydroxy-succinimide ester (Roche Diagnostics, Mannheim, Germany) and applied to the membrane for one hour at a concentration of 30 or 50 μg/ml in PBS/T. After washing three times with PBS/T the membrane was incubated for one hour with 0.75 u/ml anti-digoxigenin Fab fragment conjugated with alkaline phosphatase (Roche Diagnostics) in 10 ml PBS/T. The membrane was finally washed twice with PBS/T and twice with PBS and the signals were developed using standard chromogenic substrates as described (Schlehuber et al., supra).

Assay [2] deals with T1, recombinant Nogo-A fragment NI-Fr2. As to the kind of experiment: ELISA; NI-Fr2 coated. Here is the method:
ELISA was carried out in a 96 well microtitre plate (Becton Dickinson, Heidelberg, Germany) at ambient temperature with incubation steps of 1 h unless otherwise stated. Three washing steps with PBS/T were used after each incubation, and residual liquid was removed thoroughly. The wells were coated for 4 h with 50 μl of a solution of MI-Fr2 at concentrations between 180 and 200 μg/ml in PBS buffer and then blocked with 200 μl 3% (w/v) BSA, 0.5% (v/v) Tween 20 in PBS. After washing, 50 μl of the purified recombinant Fab fragment was applied at a dilution series in PBS/T. The wells were then incubated with 50 μl anti-human Cκ antibody conjugated with alkaline phosphatase (Sigma), diluted 1:1000 in PBS/T. Signals were finally developed in the presence of p-nitrophenyl phosphate (Voss and Skerra, (1997) Protein Eng., 10, 975-982). Enzymatic activity was measured at 25° C. as the change in absorbance at 405 nm per min with a SpectraMAX 250 instrument (Molecular Devices, Sunnyvale, Calif.). The data were corrected for background values determined in wells that were merely coated with BSA and fitted by non-linear least squares regression as described by Voss and Skerra, supra
Unfortunately, the I.2.6 mutant of the IN-1 Fab fragment was produced as a soluble protein in E. coli at a much lower level, with a relative yield of 5% after purification (0.04 mg L⁻¹ OD⁻¹ vs. 0.8 mg L⁻¹ OD⁻¹ for the wild-type IN-1 Fab fragment). […] Following earlier substitution experiments concerning position L96 (cf. above) attempts were made to replace the Cys residue in the I.2.6 mutant by small apolar side chains such as those of Ala, Val, Met, Leu, and Ile. The substitutions were introduced by site-directed mutagenesis and all corresponding recombinant Fab fragments were produced and purified as before, resulting in yields that were similar again to the wild type IN-1 Fab fragment.
A general note: An ELISA detects its analyte on a solid surface through an enzyme-linked reagent.

B1: I.1.6 Fab fragment (IN-1 mutant) (Fab, V domains shown)
VH: EVKLHESGPGLVRPGTSVKISCKASGYTFTNYWLGWVKQRPGHGLEWIGDIYPGGGYTNYNEKFKGKATLTADTSSSTAYMQLSSLTSEDSAVYFCARFYYGSSYWYFDVWGQGTTVTVSS
VL: DIELTQSPAIMAASVGETVTITCGASENIYGALNWYQRKQGKSPQLLIYGATNLADGMSSRFSGSGSGRQYSLKISSLHPDDVATYYCQNVLNLPCTFGAGTKLEIK
notes: Chimeric Fab, human IgG1/kappa constant domains
Take B1: the binding result in assay [1] is listed as “binds”.

B2: I.2.6 Fab fragment with Cys L96 replaced by Leu (Fab, V domains shown)
VH: EVKLHESGPGLVRPGTSVKISCKASGYTFTNYWLGWVKQRPGHGLEWIGDIYPGGGYTNYNEKFKGKATLTADTSSSTAYMQLSSLTSEDSAVYFCARFYYGSSYWYFDVWGQGTTVTVSS
VL: DIELTQSPAIMAASVGETVTITCGASENIYGALNWYQRKQGKSPQLLIYGATNLADGMSSRFSGSGSGRQYSLKISSLHPDDVATYYCQNVLRVPLTFGAGTKLEIK
notes: as for B1
Regarding B2, the binding result in assay [2] is on record as “no binding”.

B3: I.2.6 Fab fragment with Cys L96 replaced by Ala (Fab, V domains shown)
VH: EVKLHESGPGLVRPGTSVKISCKASGYTFTNYWLGWVKQRPGHGLEWIGDIYPGGGYTNYNEKFKGKATLTADTSSSTAYMQLSSLTSEDSAVYFCARFYYGSSYWYFDVWGQGTTVTVSS
VL: DIELTQSPAIMAASVGETVTITCGASENIYGALNWYQRKQGKSPQLLIYGATNLADGMSSRFSGSGSGRQYSLKISSLHPDDVATYYCQNVLRVPATFGAGTKLEIK
notes: as for B1
With B3, the binding result in assay [2] is recorded as “no binding”.

B4: I.2.6 Fab fragment with Cys L96 replaced by Ile (Fab, V domains shown)
VH: EVKLHESGPGLVRPGTSVKISCKASGYTFTNYWLGWVKQRPGHGLEWIGDIYPGGGYTNYNEKFKGKATLTADTSSSTAYMQLSSLTSEDSAVYFCARFYYGSSYWYFDVWGQGTTVTVSS
VL: DIELTQSPAIMAASVGETVTITCGASENIYGALNWYQRKQGKSPQLLIYGATNLADGMSSRFSGSGSGRQYSLKISSLHPDDVATYYCQNVLRVPITFGAGTKLEIK
notes: as for B1
In the case of B4, the binding result in assay [2] was “no binding”.

B5: I.2.4 Fab fragment (IN-1 mutant) (Fab, V domains shown)
VH: EVKLHESGPGLVRPGTSVKISCKASGYTFTNYWLGWVKQRPGHGLEWIGDIYPGGGYTNYNEKFKGKATLTADTSSSTAYMQLSSLTSEDSAVYFCARFYYGSSYWYFDVWGQGTTVTVSS
VL: DIELTQSPAIMAASVGETVTITCGASENIYGALNWYQRKQGKSPQLLIYGATNLADGMSSRFSGSGSGRQYSLKISSLHPDDVATYYCQNVLGTPFTFGAGTKLEIK
notes: as for B1
On to B5, for which, in assay [1], the binding result is “binds”.

B6: I.2.6 Fab fragment with Cys L96 replaced by Met (Fab, V domains shown)
VH: EVKLHESGPGLVRPGTSVKISCKASGYTFTNYWLGWVKQRPGHGLEWIGDIYPGGGYTNYNEKFKGKATLTADTSSSTAYMQLSSLTSEDSAVYFCARFYYGSSYWYFDVWGQGTTVTVSS
VL: DIELTQSPAIMAASVGETVTITCGASENIYGALNWYQRKQGKSPQLLIYGATNLADGMSSRFSGSGSGRQYSLKISSLHPDDVATYYCQNVLRVPMTFGAGTKLEIK
notes: as for B1
B6: in assay [2], the binding result is “no binding”.

B7: I.1.11 Fab fragment (IN-1 mutant) (Fab, V domains shown)
VH: EVKLHESGPGLVRPGTSVKISCKASGYTFTNYWLGWVKQRPGHGLEWIGDIYPGGGYTNYNEKFKGKATLTADTSSSTAYMQLSSLTSEDSAVYFCARFYYGSSYWYFDVWGQGTTVTVSS
VL: DIELTQSPAIMAASVGETVTITCGASENIYGALNWYQRKQGKSPQLLIYGATNLADGMSSRFSGSGSGRQYSLKISSLHPDDVATYYCQNVLYTPCTFGAGTKLEIK
notes: as for B1
In the case of B7, the binding result in assay [1] was “binds”.

B8: I.4.4 Fab fragment (IN-1 mutant) (Fab, V domains shown)
VH: EVKLHESGPGLVRPGTSVKISCKASGYTFTNYWLGWVKQRPGHGLEWIGDIYPGGGYTNYNEKFKGKATLTADTSSSTAYMQLSSLTSEDSAVYFCARFYYGSSYWYFDVWGQGTTVTVSS
VL: DIELTQSPAIMAASVGETVTITCGASENIYGALNWYQRKQGKSPQLLIYGATNLADGMSSRFSGSGSGRQYSLKISSLHPDDVATYYCQNVLDRPLTFGAGTKLEIK
notes: as for B1
On to B8, for which the binding result in assay [1] is listed as “binds”.

B9: I.2.5 Fab fragment (IN-1 mutant) (Fab, V domains shown)
VH: EVKLHESGPGLVRPGTSVKISCKASGYTFTNYWLGWVKQRPGHGLEWIGDIYPGGGYTNYNEKFKGKATLTADTSSSTAYMQLSSLTSEDSAVYFCARFYYGSSYWYFDVWGQGTTVTVSS
VL: DIELTQSPAIMAASVGETVTITCGASENIYGALNWYQRKQGKSPQLLIYGATNLADGMSSRFSGSGSGRQYSLKISSLHPDDVATYYCQNVLPCPVTFGAGTKLEIK
notes: as for B1
For B9, in assay [1], the binding result is on record as “binds”.
